Experimental data taken from patent US20190127447A1 (Ablynx, published 2019).

Target: RSV F protein of the hRSV Memphis 37 strain (human respiratory syncytial virus …)
Test: cell-based or functional assay

B1: SEQ ID NO: 71 (VHH)
chain: DVQLVESGGGLVQAGGSLSISCAASGGSLSNYVLGWFRQAPGKEREFVAAINWRGDITIGPPNVEGRFTISRDNAKNTGYLQMNSLAPDDTAVYYCGAGTPLNPGAYIYDWSYDYWGRGTQVTVSSGGGGSGGGGSGGGGSEVQLVESGGGLVQAGGSLSISCAASGGSLSNYVLGWFRQAPGKEREFVAAINWRGDITIGPPNVEGRFTISRDNAKNTGYLQMNSLAPDDTAVYYCGAGTPLNPGAYIYDWSYDYWGRGTQVTVSSGGGGSGGGGSGGGGSEVQLVESGGGLVQAGGSLSISCAASGGSLSNYVLGWFRQAPGKEREFVAAINWRGDITIGPPNVEGRFTISRDNAKNTGYLQMNSLAPDDTAVYYCGAGTPLNPGAYIYDWSYDYWGRGTQVTVSS
- sensitivity in in vitro neutralization assays relative to RSV-B 18537: 6 fold
